Measurements reported in US20260217860A1 (BIOCYTOGEN PHARMACEUTICALS BEIJING, published 2026).

Experiments:
[1] = target: T1, human EGFR on CHO-S-hEGFR cells (human, UniProt P00533 25-645); assay: flow cytometry, transfected CHO-S cells, 5 ug/mL
T1 construct: CHO-S cells transfected with vectors expressing hEGFR
Procedure: (§1) The anti-EGFR/MUC1 bispecific antibodies (5 μg/mL) were added to the 96-well plate, and incubated at 4° C. for 30 min. […] For the negative control (NC), only cells were added and no antibodies were added.

[2] = target: T2, human MUC1 (484 amino acids) on CHO-S-hMUC1 (484AA) cells (human, UniProt P15941 24-1158); assay: flow cytometry, transfected CHO-S cells, 5 ug/mL
T2 construct: CHO cells transfected with vectors expressing 484 amino acids of human MUC1
Procedure: as §1

[3] = target: T3, monkey (Macaca fascicularis) MUC1 on CHO-S-fasMUC1 cells (monkey (Macaca fascicularis)); assay: flow cytometry, transfected CHO-S cells, 5 ug/mL
T3 construct: CHO-S cells transfected with vectors expressing fasMUC1; also called monkey MUC1
T3 chain: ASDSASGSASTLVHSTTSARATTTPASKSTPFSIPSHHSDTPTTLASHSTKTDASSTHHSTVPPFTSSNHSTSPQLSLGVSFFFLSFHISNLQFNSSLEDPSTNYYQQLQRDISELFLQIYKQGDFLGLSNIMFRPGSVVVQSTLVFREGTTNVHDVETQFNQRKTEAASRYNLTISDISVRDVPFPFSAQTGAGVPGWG
Procedure: as §1

[4] = target: T4, monkey EGFR on CHO-S-fasEGFR cells (monkey, UniProt P55245 25-645); assay: flow cytometry, transfected CHO-S cells, 5 ug/mL
T4 construct: CHO-S cells transfected with vectors expressing fasEGFR
Procedure: as §1

[5] = target: T5, His-tagged human MUC1 protein hMUC1(961-1152)-His (human, UniProt P15941 961-1152); assay: SPR, Biacore 8K, 1:1 fit;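 also: His-tagged targets captured on the chip at roughly 100 RU, antibody analytes flowed at 1 µg/mL in HBS-EP+ pH 7.4, 50 s association, 400 s dissociation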
T5 construct: also called hMUC(961-1152)-His; not shown: His tag

[6] = target: T6, His-tagged human EGFR protein (hEGFR-His, ACROBiosystems Inc., Cat #: EGR-H5222) (human, UniProt P00533 25-645); assay: SPR, Biacore 8K, 1:1 fit;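 also: His-tagged targets captured on the chip at roughly 100 RU, antibody analytes flowed at 1 µg/mL in HBS-EP+ pH 7.4, 50 s association, 400 s dissociation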
T6 construct: Bought protein; not shown: His tag

[7] = target: T7, His-tagged monkey EGFR protein (fasEGFR-His, ACROBiosystems Inc., Cat #: EGR-C52H1) (monkey); assay: SPR, Biacore 8K, 1:1 fit;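 also: His-tagged targets captured on the chip at roughly 100 RU, antibody analytes flowed at 1 µg/mL in HBS-EP+ pH 7.4, 50 s association, 400 s dissociation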
T7 construct: Bought protein
Procedure: Specifically, his-tagged proteins were diluted to 200 nM, with 1×HBS-EP+buffer (PH 7.4) and then injected into the Biacore™ 8K biosensor at 10 μL/min for about 50 seconds to achieve a desired protein density (e.g., about 100 response units (RU)). Purified antibodies at 1 μg/mL in 1× HBS-EP+buffer (PH 7.4) were then injected at 10 μL/min for 50 seconds.
Dissociation was monitored for 400 seconds. The chip was regenerated after the last injection of each titration with a glycine solution (pH 1.5) at 30 L/min for 30 seconds.

[8] = target: T8, His-tagged monkey MUC1 (fasMUC1-His) (monkey, UniProt Q29435 181-380, limits assumed); assay: SPR, Biacore 8K, 1:1 fit;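 also: His-tagged targets captured on the chip at roughly 100 RU, antibody analytes flowed at 1 µg/mL in HBS-EP+ pH 7.4, 50 s association, 400 s dissociation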
T8 construct: not shown: His tag
T8 chain: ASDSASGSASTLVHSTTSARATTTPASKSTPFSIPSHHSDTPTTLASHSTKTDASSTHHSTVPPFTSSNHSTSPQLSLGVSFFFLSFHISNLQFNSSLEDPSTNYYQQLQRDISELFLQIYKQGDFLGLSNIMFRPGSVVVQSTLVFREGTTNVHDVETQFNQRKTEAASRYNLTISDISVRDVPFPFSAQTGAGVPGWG

B1: E-9A6-M-11E8 (bispecific antibody)
heavy 1: not shown
heavy 2: QVQLVQSGGGVVQPGRSLRLSCAASGFTFSSYAMHWVRQAPGKGLEWVAVISDDGINKYYADSVKGRFTISRDNSKNTLYLQMNSLRAEDSAVYYCARALPTIFGVVMYFYYGLDVWGQGTTATVSSASTKGPSVFPLAPSSKSTSGGTAALGCLVKDYFPEPVTVSWNSGALTSGVHTFPAVLQSSGLYSLSSVVTVPSSSLGTQTYICNVNHKPSNTKVDKKVEPKSCDKTHTCPPCPAPELLGGPSVFLFPPKPKDTLMISRTPEVTCVVVDVSHEDPEVKFNWYVDGVEVHNAKTKPREEQYNSTYRVVSVLTVLHQDWLNGKEYKCKVSNKALPAPIEKTISKAKGQPREPQVCTLPPSREEMTKNQVSLSCAVKGFYPSDIAVEWESNGQPENNYKTTPPVLDSDGSFFLVSKLTVDKSRWQQGNVFSCSVMHEALHNHYTQKSLSLSPGK
light: not shown
notes: Knobs-into-holes bispecific with a common light chain; also called anti-EGFR/MUC1 bispecific antibody
What does the source list for B1?
Percentage of Positive Cells (%) [1]: 63.3%; Percentage of Positive Cells (%) [2]: 93.5%; Percentage of Positive Cells (%) [3]: 45.1%; Percentage of Positive Cells (%) [4]: 23%; Kd [5]: 9.99 nM; koff [5]: 0.00218 s⁻¹; kon [5]: 218000 M⁻¹ s⁻¹; Kd [6]: 5.54 nM; koff [6]: 0.00101 s⁻¹; kon [6]: 183000 M⁻¹ s⁻¹; Kd [7]: 5.44 nM; koff [7]: 0.00116 s⁻¹; kon [7]: 213000 M⁻¹ s⁻¹; Kd [8]: 40.5 nM; koff [8]: 0.0162 s⁻¹; kon [8]: 401000 M⁻¹ s⁻¹

B2: E-9F3-M-11E8 (bispecific antibody)
heavy 1: not shown
heavy 2: QVQLVQSGGGVVQPGRSLRLSCAASGFTFSSYAMHWVRQAPGKGLEWVAVISDDGINKYYADSVKGRFTISRDNSKNTLYLQMNSLRAEDSAVYYCARALPTIFGVVMYFYYGLDVWGQGTTATVSSASTKGPSVFPLAPSSKSTSGGTAALGCLVKDYFPEPVTVSWNSGALTSGVHTFPAVLQSSGLYSLSSVVTVPSSSLGTQTYICNVNHKPSNTKVDKKVEPKSCDKTHTCPPCPAPELLGGPSVFLFPPKPKDTLMISRTPEVTCVVVDVSHEDPEVKFNWYVDGVEVHNAKTKPREEQYNSTYRVVSVLTVLHQDWLNGKEYKCKVSNKALPAPIEKTISKAKGQPREPQVCTLPPSREEMTKNQVSLSCAVKGFYPSDIAVEWESNGQPENNYKTTPPVLDSDGSFFLVSKLTVDKSRWQQGNVFSCSVMHEALHNHYTQKSLSLSPGK
light: not shown
notes: as for B1
For B2, which “Percentage of Positive Cells (%)” value [1] is on record?
Its value is 58.8%.

What about the “Percentage of Positive Cells (%)” value [2] of the same binder?
Its value is 94.2%.

What about the “Percentage of Positive Cells (%)” value [3] of the same binder?
Its value is 45.5%.

What about the “Percentage of Positive Cells (%)” value [4] of the same binder?
The value was 20.5%.

What about the Kd [5] of the same binder?
Its Kd is 2.63 nM.

And the koff [5]?
The koff was 0.000881 s⁻¹.

What about the kon [5] of the same binder?
The kon was 336000 M⁻¹ s⁻¹.

What about the Kd [6] of the same binder?
Its Kd is 28.7 nM.

And the koff [6]?
The koff was 0.00203 s⁻¹.

And the kon [6]?
The kon was 70700 M⁻¹ s⁻¹.

And the Kd [7]?
The Kd was 28.7 nM.

And the koff [7]?
Its koff is 0.00193 s⁻¹.

What about the kon [7] of the same binder?
The kon was 67100 M⁻¹ s⁻¹.

What about the Kd [8] of the same binder?
The Kd was 25.7 nM.

What about the koff [8] of the same binder?
Its koff is 0.011 s⁻¹.

And the kon [8]?
Its kon is 426000 M⁻¹ s⁻¹.

B3: E-6C4-M-11E8 (bispecific antibody)
heavy 1: not shown
heavy 2: QVQLVQSGGGVVQPGRSLRLSCAASGFTFSSYAMHWVRQAPGKGLEWVAVISDDGINKYYADSVKGRFTISRDNSKNTLYLQMNSLRAEDSAVYYCARALPTIFGVVMYFYYGLDVWGQGTTATVSSASTKGPSVFPLAPSSKSTSGGTAALGCLVKDYFPEPVTVSWNSGALTSGVHTFPAVLQSSGLYSLSSVVTVPSSSLGTQTYICNVNHKPSNTKVDKKVEPKSCDKTHTCPPCPAPELLGGPSVFLFPPKPKDTLMISRTPEVTCVVVDVSHEDPEVKFNWYVDGVEVHNAKTKPREEQYNSTYRVVSVLTVLHQDWLNGKEYKCKVSNKALPAPIEKTISKAKGQPREPQVCTLPPSREEMTKNQVSLSCAVKGFYPSDIAVEWESNGQPENNYKTTPPVLDSDGSFFLVSKLTVDKSRWQQGNVFSCSVMHEALHNHYTQKSLSLSPGK
light: not shown
notes: as for B1
B3 was tested. Which “Percentage of Positive Cells (%)” value [1] did it give?
The value was 48.1%.

What about the “Percentage of Positive Cells (%)” value [2] of the same binder?
Its value is 94%.

What about the “Percentage of Positive Cells (%)” value [3] of the same binder?
Its value is 48.2%.

And the “Percentage of Positive Cells (%)” value [4]?
Its value is 18.3%.

And the Kd [5]?
The Kd was 2.66 nM.

And the koff [5]?
Its koff is 0.00109 s⁻¹.

What about the kon [5] of the same binder?
The kon was 410000 M⁻¹ s⁻¹.

What about the Kd [6] of the same binder?
Its Kd is 91.8 nM.

And the koff [6]?
The koff was 0.0264 s⁻¹.

And the kon [6]?
The kon was 287000 M⁻¹ s⁻¹.

What about the Kd [7] of the same binder?
The Kd was 79.3 nM.

What about the koff [7] of the same binder?
Its koff is 0.0291 s⁻¹.

What about the kon [7] of the same binder?
Its kon is 367000 M⁻¹ s⁻¹.

And the Kd [8]?
The Kd was 25.7 nM.

What about the koff [8] of the same binder?
The koff was 0.0102 s⁻¹.

And the kon [8]?
Its kon is 398000 M⁻¹ s⁻¹.

B4: E-9H2-M-11E8 (bispecific antibody)
heavy 1: not shown
heavy 2: QVQLVQSGGGVVQPGRSLRLSCAASGFTFSSYAMHWVRQAPGKGLEWVAVISDDGINKYYADSVKGRFTISRDNSKNTLYLQMNSLRAEDSAVYYCARALPTIFGVVMYFYYGLDVWGQGTTATVSSASTKGPSVFPLAPSSKSTSGGTAALGCLVKDYFPEPVTVSWNSGALTSGVHTFPAVLQSSGLYSLSSVVTVPSSSLGTQTYICNVNHKPSNTKVDKKVEPKSCDKTHTCPPCPAPELLGGPSVFLFPPKPKDTLMISRTPEVTCVVVDVSHEDPEVKFNWYVDGVEVHNAKTKPREEQYNSTYRVVSVLTVLHQDWLNGKEYKCKVSNKALPAPIEKTISKAKGQPREPQVCTLPPSREEMTKNQVSLSCAVKGFYPSDIAVEWESNGQPENNYKTTPPVLDSDGSFFLVSKLTVDKSRWQQGNVFSCSVMHEALHNHYTQKSLSLSPGK
light: not shown
notes: Knobs-into-holes bispecific with a common light chain; also called anti-EGFR/MUC1 bispecific antibody; E-9H2-M-llE8
How did the “Percentage of Positive Cells (%)” value [1] turn out when B4 was run?
The value was 49.3%.

What about the “Percentage of Positive Cells (%)” value [2] of the same binder?
The value was 94%.

What about the “Percentage of Positive Cells (%)” value [3] of the same binder?
Its value is 47%.

What about the “Percentage of Positive Cells (%)” value [4] of the same binder?
The value was 15.1%.

And the Kd [5]?
The Kd was 6.19 nM.

And the koff [5]?
The koff was 0.000571 s⁻¹.

What about the kon [5] of the same binder?
The kon was 92300 M⁻¹ s⁻¹.

What about the Kd [6] of the same binder?
The Kd was 88.3 nM.

And the koff [6]?
Its koff is 0.0157 s⁻¹.

What about the kon [6] of the same binder?
Its kon is 178000 M⁻¹ s⁻¹.

What about the Kd [7] of the same binder?
Its Kd is 80.1 nM.

And the koff [7]?
Its koff is 0.0173 s⁻¹.

What about the kon [7] of the same binder?
The kon was 215000 M⁻¹ s⁻¹.

What about the Kd [8] of the same binder?
The Kd was 2.69 nM.

And the koff [8]?
Its koff is 0.00105 s⁻¹.

What about the kon [8] of the same binder?
Its kon is 389000 M⁻¹ s⁻¹.

B5: E-9D2-M-11E8 (bispecific antibody)
heavy 1: not shown
heavy 2: QVQLVQSGGGVVQPGRSLRLSCAASGFTFSSYAMHWVRQAPGKGLEWVAVISDDGINKYYADSVKGRFTISRDNSKNTLYLQMNSLRAEDSAVYYCARALPTIFGVVMYFYYGLDVWGQGTTATVSSASTKGPSVFPLAPSSKSTSGGTAALGCLVKDYFPEPVTVSWNSGALTSGVHTFPAVLQSSGLYSLSSVVTVPSSSLGTQTYICNVNHKPSNTKVDKKVEPKSCDKTHTCPPCPAPELLGGPSVFLFPPKPKDTLMISRTPEVTCVVVDVSHEDPEVKFNWYVDGVEVHNAKTKPREEQYNSTYRVVSVLTVLHQDWLNGKEYKCKVSNKALPAPIEKTISKAKGQPREPQVCTLPPSREEMTKNQVSLSCAVKGFYPSDIAVEWESNGQPENNYKTTPPVLDSDGSFFLVSKLTVDKSRWQQGNVFSCSVMHEALHNHYTQKSLSLSPGK
light: not shown
notes: as for B1
How did the “Percentage of Positive Cells (%)” value [1] turn out when B5 was run?
Its value is 50.1%.

What about the “Percentage of Positive Cells (%)” value [2] of the same binder?
Its value is 93.8%.

What about the “Percentage of Positive Cells (%)” value [3] of the same binder?
The value was 47%.

What about the “Percentage of Positive Cells (%)” value [4] of the same binder?
Its value is 16.8%.

What about the Kd [5] of the same binder?
The Kd was 2.79 nM.

And the koff [5]?
The koff was 0.000543 s⁻¹.

What about the kon [5] of the same binder?
Its kon is 195000 M⁻¹ s⁻¹.

And the Kd [6]?
The Kd was 59.5 nM.

And the koff [6]?
The koff was 0.02 s⁻¹.

And the kon [6]?
The kon was 337000 M⁻¹ s⁻¹.

And the Kd [7]?
The Kd was 52.2 nM.

What about the koff [7] of the same binder?
The koff was 0.0248 s⁻¹.

And the kon [7]?
Its kon is 476000 M⁻¹ s⁻¹.

And the Kd [8]?
The Kd was 19.1 nM.

And the koff [8]?
Its koff is 0.00896 s⁻¹.

And the kon [8]?
Its kon is 470000 M⁻¹ s⁻¹.
